Biological target: human GITR-Fc (human) (UniProt Q9Y5U5)
Assay: not stated; binding to and dissociation from the GITR-Fc receptors measured in real time, equilibrium binding constants (KD) calculated; instrument and who was immobilised not told in what was shown

Sequence of human GITR-Fc (human) (Q9Y5U5 26-162): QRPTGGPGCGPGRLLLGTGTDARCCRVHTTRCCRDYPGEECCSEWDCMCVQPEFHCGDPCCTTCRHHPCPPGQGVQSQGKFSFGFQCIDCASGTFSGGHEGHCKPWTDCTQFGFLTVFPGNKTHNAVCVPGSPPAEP

Kd: 0.366 nM
Substance: HERA-GITRL (hexavalent TNF receptor agonist; single-chain GITRL-receptor-binding-domain fused to a silenced human IgG1 Fc) (from UniProt Q9UNG2 56-177; Q9UNG2 56-177; Q9UNG2 56-177) (Fc fusion)

Reference: article PMC6642547
